The values below come from patent US20070059309A1 (Genentech, published 2007).

Holding throughout (assay): cell-based or functional assay
Assay [1] concerns the target recombinant human IFN-α4 (human, UniProt P05014 24-189).
In assay [2] the target is T1, recombinant human IFN-α5 (human, UniProt P01569 24-189, limits assumed).
For assay [3], the target named is T1, recombinant human IFN-α5. This is another data set of the same source.
The target of assay [4] is recombinant human IFN-α1 (human).
Sequence of recombinant human IFN-α1 (human) (P01562 24-189): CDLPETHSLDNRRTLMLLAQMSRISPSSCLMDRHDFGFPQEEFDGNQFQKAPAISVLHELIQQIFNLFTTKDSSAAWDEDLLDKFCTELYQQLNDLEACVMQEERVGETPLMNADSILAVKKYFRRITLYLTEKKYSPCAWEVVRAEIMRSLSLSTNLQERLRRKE

T1 sequence (P01569 24-189 limits assumed): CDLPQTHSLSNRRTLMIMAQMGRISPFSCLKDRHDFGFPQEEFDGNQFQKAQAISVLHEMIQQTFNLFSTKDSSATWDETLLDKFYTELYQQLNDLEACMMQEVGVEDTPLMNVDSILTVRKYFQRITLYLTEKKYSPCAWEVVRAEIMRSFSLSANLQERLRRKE
Sequence of recombinant human IFN-α4 (P05014 24-189 limits assumed): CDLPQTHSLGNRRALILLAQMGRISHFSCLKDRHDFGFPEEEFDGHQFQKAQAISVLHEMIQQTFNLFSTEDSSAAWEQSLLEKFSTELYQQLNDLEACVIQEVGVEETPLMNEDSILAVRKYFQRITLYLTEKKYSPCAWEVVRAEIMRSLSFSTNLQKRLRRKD

B1: murine anti-human IFN-α monoclonal antibody 9F3 (antibody, IgG2, V domains shown)
VL: DIVLTQSPASLAVSLGQRATISCRASQSVSTSSYSYMHWYQQKPGQPPKVLISYASNLESGVPARFSGSGSGTDFTLNIHPVEEGDTATYFCQHSWGIPRTFGAGTKLELRR
V domain: EVQLQQSGPELVKPGASVKISCKTSGYTFTEYIIHWVKQGHGRSLEWIGSINPDYDITNYNQRFKGKATLTLDKSSRTAYLELRSLTSEDSAVYYCASWISDFFDYWGQGTTLMVSA
B1: the “EC50 (read off the curve); neutralization of anti-viral activity, EMC virus / A549 cells” value in assay [1] and in assay [2] was about 1 µg/mL in each case. For the same molecule, the “EC50 (read off the curve); neutralization of anti-viral activity, EMC virus / A549 cells [left panel]” value in assay [3] is about 0.2 µg/mL.

B2: chimeric protein CH8-2 (antibody, V domains shown)
VL: DIVLTQSPASLAVSLGQRATISCRASQSVSTSSYSYMHWYQQKPGQPPKVLISYASNLESGVPARFSGSGSGTDFTLNIHPVEEGDTATYFCQHSWGIPRTFGAGTKLELRR
V domain: EVQLQQSGPELVKPGASVKISCKTSGYTFTEYIIHWVKQGHGRSLEWIGSINPDYDITNYNQRFKGKATLTLDKSSRTAYLELRSLTSEDSAVYYCASWISDFFDYWGQGTTLMVSA
In the case of B2, the “EC50 (read off the curve); neutralization of anti-viral activity, EMC virus / A549 cells [right panel]” value in assay [4] was about 2 µg/mL.
